Test in all cases: BLI
Assay [1] has as its target REGN10987.
In assay [2] the target is REGN10933.
Assay [3] concerns the target AZD8895.
Assay [4] has as its target AZD8895-450.
The target of assay [5] is MW05.
Assay [6] concerns the target Sotrovimab.
The target in assay [7] is AZD8895-275.
Assay [8] addresses AZD8895-25.

From PMC12847411 come the findings set out here.

Sequence of MW05 (light, as listed by the source): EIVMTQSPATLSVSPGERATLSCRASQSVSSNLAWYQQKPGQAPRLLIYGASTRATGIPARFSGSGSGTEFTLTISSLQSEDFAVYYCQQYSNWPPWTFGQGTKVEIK
Sequence of REGN10987 (heavy, as listed by the source, chain 1 of 2): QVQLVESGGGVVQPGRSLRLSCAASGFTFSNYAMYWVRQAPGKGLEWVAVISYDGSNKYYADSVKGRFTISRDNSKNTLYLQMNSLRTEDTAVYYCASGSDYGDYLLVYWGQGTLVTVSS
Sequence of REGN10987 (light, as listed by the source, chain 2 of 2): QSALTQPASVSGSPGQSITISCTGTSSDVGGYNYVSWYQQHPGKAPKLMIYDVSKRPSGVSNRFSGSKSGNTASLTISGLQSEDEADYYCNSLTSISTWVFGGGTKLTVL
Sequence of AZD8895-25 (heavy, as listed by the source, chain 1 of 2): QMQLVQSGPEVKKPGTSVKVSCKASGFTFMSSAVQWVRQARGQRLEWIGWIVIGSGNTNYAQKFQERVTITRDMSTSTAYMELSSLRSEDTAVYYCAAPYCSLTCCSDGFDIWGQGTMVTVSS
Sequence of AZD8895-25 (light, as listed by the source, chain 2 of 2): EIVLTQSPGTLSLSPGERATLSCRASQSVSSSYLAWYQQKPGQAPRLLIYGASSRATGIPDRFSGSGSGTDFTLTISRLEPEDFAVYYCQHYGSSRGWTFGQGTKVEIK
Sequence of AZD8895 (heavy, as listed by the source, chain 1 of 2): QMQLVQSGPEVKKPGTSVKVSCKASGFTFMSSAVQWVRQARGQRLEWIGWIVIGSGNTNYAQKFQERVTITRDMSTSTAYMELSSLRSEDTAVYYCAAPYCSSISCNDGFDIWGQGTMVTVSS
Sequence of REGN10933 (heavy, as listed by the source, chain 1 of 2): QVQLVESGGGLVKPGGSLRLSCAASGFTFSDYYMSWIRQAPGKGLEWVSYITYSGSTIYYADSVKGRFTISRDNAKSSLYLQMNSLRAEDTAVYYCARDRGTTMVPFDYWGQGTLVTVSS
Sequence of REGN10933 (light, as listed by the source, chain 2 of 2): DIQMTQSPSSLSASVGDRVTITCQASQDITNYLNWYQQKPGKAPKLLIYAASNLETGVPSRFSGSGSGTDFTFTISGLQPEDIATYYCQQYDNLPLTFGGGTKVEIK
Sequence of AZD8895-275 (heavy, as listed by the source, chain 1 of 2): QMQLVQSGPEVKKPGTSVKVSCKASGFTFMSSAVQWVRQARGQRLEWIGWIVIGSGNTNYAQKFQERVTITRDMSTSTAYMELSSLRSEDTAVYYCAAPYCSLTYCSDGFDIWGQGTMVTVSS
Sequence of AZD8895-450 (heavy, as listed by the source, chain 1 of 2): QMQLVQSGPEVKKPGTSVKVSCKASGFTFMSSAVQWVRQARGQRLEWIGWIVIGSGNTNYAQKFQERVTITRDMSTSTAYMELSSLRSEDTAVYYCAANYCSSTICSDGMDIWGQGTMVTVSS

As for “SARS-CoV-2 spike RBD protein (Sino Biological, 40592-V08H) (from UniProt P0DTC2) (domain or fragment)”, the Kd was found to be 5.92 nM in assay [1]; 6.7 nM in assay [2]; 6.71 nM in assay [3]; 7.33 nM in assay [4]; 1.89 nM in assay [5]; 1.42 nM in assay [6]. For the same substance, the Kd in assay [7] was 5.17 nM; in assay [8] it was 4.81 nM.
